One protein from publication PMC12328707, “Potassium binding by carbonyl clusters, halophilic adaptation and catalysis of Haloferax mediterranei D-2-hydroxyacid dehydrogenase” (Communications Biology, 2025) can be followed below.

Test in all cases: purified protein
Holding throughout (type): biochemical, Haloferax mediterranei

Substrate in data set [1]: NC(=O)C1=CN([C@@H]2O[C@H](COP(=O)(O)OP(=O)(O)OC[C@H]3O[C@@H](n4cnc5c(N)ncnc54)[C@H](OP(=O)(O)O)[C@@H]3O)[C@@H](O)[C@H]2O)C=CC1
Conditions: 4 mM 2-ketohexanoic acid, 4 M KCl, 50 mM HEPES pH 8.0, 22 °C, varied: cofactor.

Substrate in data set [2]: CCCCC(=O)C(=O)O
To be noted: 0.25 mM NADPH, 4 M KCl, 50 mM HEPES pH 8.0, 22 °C.

Substrate in data set [3]: NC(=O)C1=CN([C@@H]2O[C@H](COP(=O)(O)OP(=O)(O)OC[C@H]3O[C@@H](n4cnc5c(N)ncnc54)[C@H](O)[C@@H]3O)[C@@H](O)[C@H]2O)C=CC1
To be noted: 20 mM 2-ketohexanoic acid, 4 M KCl, 50 mM HEPES pH 8.0, 22 °C, varied: cofactor.

B1: D2HDH (Haloferax mediterranei ATCC 33500) (protein)
chain: MHIERLAVDESVGRAMPPQRFIEALSDLGVPVEFAGEDEQFGPGDAVASFGHRDAFLDADWVHCIRAGYDEFPVGVYEEAGTYLTNSTGIHGTTVGETVAGYMLTFARRLHAYRDAQHDHAWDLPRYEEPFTLAGERVCVVGLGTLGRGVVDRAAALGMEVVGVRRSGDPVDNVSTVYTPDRLHEAIADARFVVLATPLTDETEGMVAAPEFETMREDASLVNVARGPVVVESDLVAALDSGDIAGAALDVFSEEPLPEDSPLWDFEDVLITPHVSAATSKYHEDVAALIRENIEKIATGDELTNRVV
notes: homodimer (~66 kDa; 79 kDa by gel filtration); residues 1-308; no tag mentioned
A word on the Km: it is the substrate concentration at which the rate is half of its maximum. Broadly, the Vmax is the top rate of the reaction or transport when substrate is in excess. By kcat is commonly meant the maximal rate divided by the concentration of active sites. What is called kcat/Km is the turnover number divided by the Michaelis constant. Consider B1, for which, in data set [1], the Km came to 14 ± 4 µM, the Vmax is 2.5 µmol/min/mg, the turnover number (kcat) turned out to be 1.38 ± 0.0667 s⁻¹ and the catalytic efficiency (kcat/Km) was 98800 M⁻¹ s⁻¹. In addition, in data set [2], the Km stood at 460 ± 30 µM, the Vmax was 2.5 µmol/min/mg, the kcat was found to be 1.38 ± 0.0333 s⁻¹ and the kcat/Km worked out at 3000 M⁻¹ s⁻¹. For the same protein, in data set [3], the Km was determined as 97 ± 18 µM, the Vmax stood at 4.4 µmol/min/mg, the kcat stood at 2.48 ± 0.167 s⁻¹ and the kcat/Km worked out at 25600 M⁻¹ s⁻¹.
